Data taken from article PMC5777782, “Dimeric and tetrameric forms of muscle fructose-1,6-bisphosphatase play different roles in the cell” (Oncotarget, 2017).
Residue numbers refer to the chain shown, from its start.

How the values were obtained:
[1] = molecular target: human FBP2 D187L mutant (human); test: AUC; sedimentation velocity, laser interferometry, 42,000 rpm, 20°C, protein at 0.5 mg/ml, with 5 mM AMP
[2] = molecular target: human FBP2 D187L mutant (human); test: AUC; sedimentation velocity, laser interferometry, 42,000 rpm, 20°C, protein at 0.5 mg/ml, with 120 μM AMP
[3] = molecular target: human FBP2 D187L mutant (human); test: AUC; sedimentation velocity, laser interferometry, 42,000 rpm, 20°C, protein at 0.1, 0.5 and 1 mg/ml, without AMP; distribution of monomers, dimers and tetramers
[4] = molecular target: human FBP2 L190G mutant (human); test: AUC; sedimentation velocity, laser interferometry, 42,000 rpm, 20°C, protein at 0.5 mg/ml, with 5 mM AMP
[5] = molecular target: human FBP2 L190G mutant (human); test: AUC; sedimentation velocity, laser interferometry, 42,000 rpm, 20°C, protein at 0.5 mg/ml, with 120 μM AMP
[6] = molecular target: human FBP2 L190G mutant (human); test: AUC; sedimentation velocity, laser interferometry, 42,000 rpm, 20°C, protein at 0.5 mg/ml, with 0.16 μM AMP
[7] = molecular target: human FBP2 L190G mutant (human); test: AUC; sedimentation velocity, laser interferometry, 42,000 rpm, 20°C, protein at 0.1, 0.5 and 1 mg/ml, without AMP; distribution of monomers, dimers and tetramers
[8] = molecular target: T1, Muscle fructose-1,6-bisphosphatase (FBP2), L190G mutant (Homo sapiens, UniProt O00757, L191G); test: coupled enzyme activity assay, biphasic inhibition (second phase IC50 […]); assay type: biochemical
T1 construct: tag-free FBP2, expressed in E. coli
T1 sequence (O00757 2-339 L191G): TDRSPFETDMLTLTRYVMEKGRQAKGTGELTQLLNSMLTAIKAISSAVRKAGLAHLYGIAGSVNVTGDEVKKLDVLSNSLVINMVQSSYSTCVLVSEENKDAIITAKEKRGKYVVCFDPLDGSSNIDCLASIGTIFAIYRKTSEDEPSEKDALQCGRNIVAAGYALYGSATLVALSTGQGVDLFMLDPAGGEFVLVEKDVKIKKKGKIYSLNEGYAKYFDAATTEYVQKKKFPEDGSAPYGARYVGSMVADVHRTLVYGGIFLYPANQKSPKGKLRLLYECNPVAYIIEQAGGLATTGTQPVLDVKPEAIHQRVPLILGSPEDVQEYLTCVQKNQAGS

[9] = molecular target: T2, Muscle fructose-1,6-bisphosphatase (FBP2), D187L mutant (Homo sapiens, UniProt O00757, D188L); test: coupled enzyme activity assay; oligomerization by sedimentation velocity ultracentrifugation; assay type: biochemical
T2 construct: tag-free FBP2, expressed in E. coli
T2 sequence (O00757 2-339 D188L): T1 sequence (O00757 2-339 L191G) with D187L, G190L

[10] = molecular target: T3, Muscle fructose-1,6-bisphosphatase (FBP2), wild-type (Homo sapiens, UniProt O00757); test: coupled glucose 6-phosphate isomerase/glucose 6-phosphate dehydrogenase activity assay; AMP-induced tetramerization by sedimentation velocity ultracentrifugation; assay type: biochemical
T3 construct: tag-free WT FBP2, expressed in E. coli
T3 sequence (O00757 2-339): T1 sequence (O00757 2-339 L191G) with G190L

Q: How did the percent tetrameric [1] turn out when human FBP2 D187L mutant (enzyme) was run?
A: The percent tetrameric was 35%.

Q: What about the percent tetrameric [2] of the same molecule?
A: The percent tetrameric was 45%.

Q: And the percent dimeric [3]?
A: The percent dimeric was 83.4%.

Q: What about the stoichiometry N [3] of the same molecule?
A: Its stoichiometry N is 2.

Q: human FBP2 L190G mutant (enzyme) was tested. Which stoichiometry N [4] did it give?
A: The stoichiometry N was 2.

Q: What about the stoichiometry N [5] of the same molecule?
A: Its stoichiometry N is 2.

Q: What about the stoichiometry N [6] of the same molecule?
A: Its stoichiometry N is 2.

Q: What about the percent dimeric [7] of the same molecule?
A: Its percent dimeric is 91.2%.

Q: What about the stoichiometry N [7] of the same molecule?
A: The stoichiometry N was 2.

Q: What does the source list for Nc1ncnc2c1ncn2[C@@H]1O[C@H](COP(=O)(O)O)[C@@H](O)[C@H]1O [AMP]?
A: IC50 [8]: 84.4 ± 6.73 µM; IC50 [9]: 1.44 ± 0.06 µM; IC50 [10]: 0.59 ± 0.01 µM
